Experimental data: IntAct's records for PubMed 23727230

Molecular target: prp8_yeast PRP8 (UniProt P33334)
Sequence (P33334 whole entry): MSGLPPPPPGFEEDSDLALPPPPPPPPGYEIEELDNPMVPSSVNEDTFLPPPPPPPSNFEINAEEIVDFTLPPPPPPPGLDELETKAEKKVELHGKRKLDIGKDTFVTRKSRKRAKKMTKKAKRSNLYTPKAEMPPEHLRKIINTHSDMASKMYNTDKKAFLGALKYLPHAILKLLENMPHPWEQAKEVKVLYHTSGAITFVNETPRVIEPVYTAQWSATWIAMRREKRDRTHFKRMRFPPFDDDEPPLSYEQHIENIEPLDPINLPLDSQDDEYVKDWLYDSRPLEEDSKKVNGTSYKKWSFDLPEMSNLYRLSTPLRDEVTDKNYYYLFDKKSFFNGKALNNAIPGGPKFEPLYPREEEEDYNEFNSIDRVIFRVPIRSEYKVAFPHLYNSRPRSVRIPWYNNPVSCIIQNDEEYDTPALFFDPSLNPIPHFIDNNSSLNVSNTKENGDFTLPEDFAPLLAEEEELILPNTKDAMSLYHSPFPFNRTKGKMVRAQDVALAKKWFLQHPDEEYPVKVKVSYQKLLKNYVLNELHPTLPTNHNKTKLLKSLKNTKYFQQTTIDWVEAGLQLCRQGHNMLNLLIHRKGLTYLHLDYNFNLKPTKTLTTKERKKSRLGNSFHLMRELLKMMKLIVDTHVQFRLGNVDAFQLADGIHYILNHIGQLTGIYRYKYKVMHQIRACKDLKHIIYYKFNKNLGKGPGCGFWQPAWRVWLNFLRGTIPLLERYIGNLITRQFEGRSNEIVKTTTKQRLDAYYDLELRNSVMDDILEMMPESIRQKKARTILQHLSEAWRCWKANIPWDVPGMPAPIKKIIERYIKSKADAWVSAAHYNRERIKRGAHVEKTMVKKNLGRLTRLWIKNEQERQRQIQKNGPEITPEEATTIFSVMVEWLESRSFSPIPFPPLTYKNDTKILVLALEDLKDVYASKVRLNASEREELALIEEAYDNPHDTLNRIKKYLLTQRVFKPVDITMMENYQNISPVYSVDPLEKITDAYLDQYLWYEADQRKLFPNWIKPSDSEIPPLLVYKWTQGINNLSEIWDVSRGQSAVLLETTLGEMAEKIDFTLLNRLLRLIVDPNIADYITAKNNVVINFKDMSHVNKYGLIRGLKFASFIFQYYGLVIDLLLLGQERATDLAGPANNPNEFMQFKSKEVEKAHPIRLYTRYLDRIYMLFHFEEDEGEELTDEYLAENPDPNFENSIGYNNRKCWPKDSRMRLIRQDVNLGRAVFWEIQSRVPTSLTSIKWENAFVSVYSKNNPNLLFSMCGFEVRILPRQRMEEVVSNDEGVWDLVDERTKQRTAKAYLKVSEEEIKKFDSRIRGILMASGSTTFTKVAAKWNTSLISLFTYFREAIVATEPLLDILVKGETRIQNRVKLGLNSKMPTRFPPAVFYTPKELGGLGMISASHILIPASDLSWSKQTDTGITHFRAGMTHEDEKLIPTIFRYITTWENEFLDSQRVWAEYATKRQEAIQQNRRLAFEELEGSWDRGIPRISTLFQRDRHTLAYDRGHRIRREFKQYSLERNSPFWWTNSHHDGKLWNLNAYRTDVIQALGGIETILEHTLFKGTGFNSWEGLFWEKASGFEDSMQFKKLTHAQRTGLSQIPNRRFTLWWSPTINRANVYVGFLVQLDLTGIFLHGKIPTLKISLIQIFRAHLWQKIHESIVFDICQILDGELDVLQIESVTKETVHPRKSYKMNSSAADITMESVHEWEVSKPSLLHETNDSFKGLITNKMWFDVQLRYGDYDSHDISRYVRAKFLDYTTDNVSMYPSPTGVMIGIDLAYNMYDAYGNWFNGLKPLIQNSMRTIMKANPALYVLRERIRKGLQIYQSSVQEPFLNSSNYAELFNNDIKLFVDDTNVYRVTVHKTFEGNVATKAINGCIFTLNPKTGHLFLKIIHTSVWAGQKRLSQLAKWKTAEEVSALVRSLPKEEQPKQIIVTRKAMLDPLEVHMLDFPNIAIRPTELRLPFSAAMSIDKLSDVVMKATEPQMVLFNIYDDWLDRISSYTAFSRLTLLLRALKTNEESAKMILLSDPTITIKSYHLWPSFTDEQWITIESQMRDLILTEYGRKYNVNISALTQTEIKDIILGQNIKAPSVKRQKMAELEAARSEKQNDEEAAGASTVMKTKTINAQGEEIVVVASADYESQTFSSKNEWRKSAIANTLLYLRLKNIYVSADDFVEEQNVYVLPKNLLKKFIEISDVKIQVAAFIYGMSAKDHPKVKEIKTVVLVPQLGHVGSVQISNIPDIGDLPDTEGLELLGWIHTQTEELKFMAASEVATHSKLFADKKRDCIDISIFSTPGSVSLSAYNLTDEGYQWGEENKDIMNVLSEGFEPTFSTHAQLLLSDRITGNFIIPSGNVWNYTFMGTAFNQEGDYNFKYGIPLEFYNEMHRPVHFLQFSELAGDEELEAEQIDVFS

effect of a mutation on the interaction: decreasing interaction strength
Substance: Pre-mRNA-splicing helicase BRR2 (Saccharomyces cerevisiae), P32639 D1247A;D1249A
